From publication PMC5738273 (Journal of molecular biology, 2017)

How the values were obtained:
MST [1] = target: the molecule itself; assay: MST
MST [2] = target: the molecule itself; assay: MST; remark: listed apart in the source
MST [3] = target: the molecule itself; assay: MST; remark: listed apart in the source
ITC = target: the molecule itself; assay: ITC
MST [4] = target: the molecule itself; assay: MST; remark: listed apart in the source

Protein	Kd (MST [1]) [nM]	Kd (MST [2]) [nM]	Kd (MST [3]) [nM]	Kd (ITC) [nM]	Kd (MST [4]) [nM]
wild-type HdeA (natural protein, Escherichia coli, UniProt P0AES9 22-110, looked up) ADAQKAADNKKPVNSWTCEDFLAVDESFQPTAVGFAEALNNKDKPEDAVLDVQGIATVTPAIVQACTQDKQANFKDKVKGEWDKIKKDM	750 ± 310	640 ± 170	1200 ± 200	64000 ± 8000	
HdeA E37Q (natural protein, Escherichia coli, UniProt P0AES9 22-110, looked up) ADAQKAADNKKPVNSWTCEDFLAVDESFQPTAVGFAQALNNKDKPEDAVLDVQGIATVTPAIVQACTQDKQANFKDKVKGEWDKIKKDM		550 ± 100			490 ± 100
